# From PMC9460513, “The 5′-phosphate enhances the DNA-binding and exonuclease activities of human mitochondrial genome maintenance exonuclease 1 (MGME1)”
# T1: MGME1 (Homo sapiens, UniProt Q9BQP7 21-344)
# T1 sequence: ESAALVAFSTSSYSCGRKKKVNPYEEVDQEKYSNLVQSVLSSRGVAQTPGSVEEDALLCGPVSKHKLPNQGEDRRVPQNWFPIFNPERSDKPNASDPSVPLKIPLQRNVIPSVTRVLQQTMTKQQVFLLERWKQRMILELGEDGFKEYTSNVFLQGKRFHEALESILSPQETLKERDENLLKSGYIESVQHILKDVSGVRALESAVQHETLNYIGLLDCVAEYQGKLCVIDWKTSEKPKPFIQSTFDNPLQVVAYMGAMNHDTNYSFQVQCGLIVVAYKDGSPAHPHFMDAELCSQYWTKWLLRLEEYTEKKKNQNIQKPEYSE
# Target: T1, MGME1
# Assay: fluorescence polarization; 10 mM EDTA; FP: 2 nM FAM-ssDNA, 20 mM Hepes pH 8.0 (at 37 C), 100 mM NaCl, 0.1 mg/ml BSA, 1 mM DTT, 10 mM EDTA, mixed at room temperature, 15 min; EMSA: 1 uM ssDNA, 20 mM Hepes pH 8.0, 100 mM NaCl, 1 mM DTT, 10 mM EDTA, room temperature 15 min, gel 0.35x TBE at 4 C
# Conditions: protein: recombinant; tags: His-SUMO tag removed by Ulp1; label: 3'-6FAM; single strand
row,Binder,Kd
1,TTTTTTTTTTTTTTTTTTTT (ssDNA) [T20(3')],0.33 ± 0.083 µM
2,"TTTTTTTTTTTTTTTTTTTT (ssDNA, 5'-phosphate) [T20(3')-5'p]",0.18 ± 0.005 µM
3,TTTTTTTTTT (ssDNA) [T10(3')],7.5 ± 0.89 µM
4,"TTTTTTTTTT (ssDNA, 5'-phosphate) [T10(3')-5'p]",1.6 ± 0.075 µM
5,"TTTTTTTTTT (ssDNA, 5'-phosphate-tetrahydrofuran (abasic) before T10) [T10(3')-5'dSp]",0.34 ± 0.024 µM

# Same assay, conditions: protein: recombinant; tags: His-SUMO tag removed by Ulp1; label: 5'-6FAM; single strand
row,Binder,Kd
1,"TTTTTTTTTTTTTTTTTTTT (ssDNA, 5' phosphate linkage of the FAM label) [T20(5')]",0.24 ± 0.036 µM
2,"AAAAAAAAAAAAAAAAAAAA (ssDNA, 5' phosphate linkage of the FAM label) [A20(5')]",1.3 ± 0.17 µM
3,"TTTTTTTTTT (ssDNA, 5' phosphate linkage of the FAM label) [T10(5')]",0.6 ± 0.15 µM

# Target: T1, MGME1
# Assay: competition (fluorescence polarization); 10 mM EDTA; 140 nM MGME1 with 2 nM T20(5') preformed; FP: 2 nM FAM-ssDNA, 20 mM Hepes pH 8.0 (at 37 C), 100 mM NaCl, 0.1 mg/ml BSA, 1 mM DTT, 10 mM EDTA, mixed at room temperature, 15 min; EMSA: 1 uM ssDNA, 20 mM Hepes pH 8.0, 100 mM NaCl, 1 mM DTT, 10 mM EDTA, room temperature 15 min, gel 0.35x TBE at 4 C
# Conditions: protein: recombinant; tags: His-SUMO tag removed by Ulp1; single strand
row,Binder,Kd
1,TTTTTTTTTTTTTTTTTTTT (ssDNA) [T20 (unlabeled)],0.25 ± 0.033 µM
